# Reference: US20190202901A1 (PIERRE FABRE MEDICAMENT, published 2019)
# B1: hz208F2 H026/L024 (antibody, human IgG1, kappa, V domains shown)
# VH: QVQLVQSGAEVKKPGASVKMSCKASGYTFTSYYIYWVKQAPGQGLEWLGWIWPGDGSTKYNEKFQGRVTLTADKSSNTAYMFLSSLRSEDTAVYFCASPMITPNYAMDYWGQGTLVTVSS
# VL: DIQMTQSPSSLSASVGDRVTISCRASQDISKYLNWYQQKPGKAPKLLIYYTSRLHSGVPSRFSGRGSGTDYSLTISNLQPEDFATYFCQQGSTLPYTFGGGTKVEIKR
# notes: also called hz208F2 VH3/VL3; hz208F2 VH3VL3
# Legend:
# [1] = biological target: T1, human IGF-1R, native, on cells (MCF-7, hIGF-1R transfected cells, tumor sections, primary normal cells) (human, UniProt P08069 31-1367); assay: cell-based or functional assay
# [2] = biological target: T2, soluble recombinant human IGF-1R hetero-tetramer with C-terminal 10-His tag (R&D Systems 305-GR-50) (human, UniProt P08069 31-736; P08069 741-932); assay: SPR Biacore X100, Ln(2)/koff
# T2 construct: domain: alpha chain;domain: extracellular domain of the beta chain; Captured on an anti-His antibody chip; also called recombinant soluble human-IGF-1R; h-IGF-1R
# Protocol: (§1) The dissociation constants (KD) of the binding of the antibodies on a recombinant soluble human-IGF-1R were defined by the ratio between the dissociation rate (koff) and the association rate (kₒₙ). The kinetic experiments were run on a Biacore X100 device using a CM5 sensor chip activated by a mouse anti-Tag His monoclobnal antibody. Around 12000 RU of antibodies are chemically grafted on the carboxymethyldextan matrix using the amine kit chemistry.
# (§2) The experiments were carried out at 25° C. with a flow rate of 30 μl/min using the HBS-EP+ buffer (GE Healthcare) as the running and sample dilution buffer.
# The single cycle kinetic scheme was used to define the kinetic parameters of the binding of the anti-IGF-1R antibodies on a soluble recombinant human IGF-1R captured by its two C-terminal 10 Histidine-tag. [0637] 1—A solution of a soluble recombinant version of the human IGF-1R hetero-tetramere: 2a chains and the extracellular domains of 2β chains expressed with an additional C-terminal 10-His tag (R&D Systems catalogue number 305-GR-50) was injected during one minute on the second flowcell at a concentration of 10 μg/ml. […] [0638] 2—After the capture phase, either the running buffer was injected 5 times (90 s each injection) or a growing range of 5 concentrations of one of the six antibodies was injected (90 s each injection) on both flowcells. […]
# [3] = biological target: T3, monkey IGF-1R on COS-7 cells (monkey (African green monkey)); assay: FACS titration on Cos-7 cells
# T3 construct: whole, on cells; also called monkey native IGF-1R; Cos-7 (monkey IGF1R+)
# Protocol: (§3) The binding properties of the humanized variants were evaluated by FACS analyses on the human MCF-7 breast adenocarcinoma cell line and the monkey cell line Cos-7 using increasing antibody concentrations. For that purpose, cells (1×10⁶ cells/ml) were incubated with anti-IGF-1R antibodies for 20 min. at 4° C. in FACS buffer (PBS, 0.1% BSA, 0.01% NaN3). They were then washed 3 times and incubated with the appropriate secondary antibody coupled with Alexa 488 for 20 additional minutes at 4° C. in the dark before being washed 3 times in FACS buffer. The binding of anti-IGF-1R antibodies was immediately performed on viable cells which were identified using propidium iodide (that stains dead cells). The EC₅₀ of binding expressed in molarity (M) was calculated using a nonlinear regression analysis (GraphPad Prims 4.0).
# [4] = biological target: T1, human IGF-1R, native, on cells (MCF-7, …); assay: FACS titration on MCF-7 cells
# Protocol: as §3
# [5] = biological target: T2, soluble recombinant human IGF-1R …; assay: SPR Biacore X100, His-captured soluble h-IGF-1R (about 600 RU), mean of 4 experiments
# Protocol: as §1, §2
# The single cycle kinetic scheme was used to define the kinetic parameters of the binding of the anti-IGF-1R antibodies on a soluble recombinant human IGF-1R captured by its two C-terminal 10 Histidine-tag. [0637] 1—A solution of a soluble recombinant version of the human IGF-1R hetero-tetramere: 2a chains and the extracellular domains of 2β chains expressed with an additional C-terminal 10-His tag (R&D Systems catalogue number 305-GR-50) was injected during one minute on the second flowcell at a concentration of 10 μg/ml. […] [0638] 2—After the capture phase, either the running buffer was injected 5 times (90 s each injection) or a growing range of 5 concentrations of one of the six antibodies was injected (90 s each injection) on both flowcells. At the end of the fifth injection the running buffer was passed during 5 minutes in order to define the dissociation rate. [0639] 3—The surface was then generated with an injection of a 10 mM Glycine, HCl pH 1.5 buffer during 45 s.
# [6] = biological target: T1, human IGF-1R, native, on cells (MCF-7, …); assay: FACS titration on MCF-7 cells, 4 C, secondary antibody, MFI; EC50 table inside the plot
# [7] = biological target: T3, monkey IGF-1R on COS-7 cells; assay: FACS titration on COS-7 cells, 4 C, secondary antibody, MFI; EC50 table inside the plot
# [8] = biological target: T4, human insulin receptor on cells (IM9 cells, hIR+ transfected cell line) (human, UniProt P06213 28-1382); assay: FACS titration on NIH 3T3 IR+ cells (human insulin receptor transfected), 4 C, secondary antibody, MFI
# T4 construct: whole, on cells; also called human IR
binder,measurement,setting,value
B1,"% internalization (MCF-7, 10 µg/ml, 4 h)",[1],87%
same,"ΔMFI (MCF-7, 10 µg/ml, 4 h)",[1],344 MFI
same,half-life of the complex,[2],2 to 3 h
same,EC50,[3],0.51 nM
same,EC50,[4],0.709 nM
same,Kd,[5],~0.06 nM
same,EC50,[6],0.71 nM
same,EC50,[7],0.511 nM
same,binding result,[8],no binding (tested: log [M] about -7.2 (about 6e-8 M))
